Source: article PMC12319226 (Frontiers in Bioinformatics, 2025)

T1: fHbp mutant 0022 (Neisseria meningitidis, fHbp v3.28 …, point mutant)
T1 chain: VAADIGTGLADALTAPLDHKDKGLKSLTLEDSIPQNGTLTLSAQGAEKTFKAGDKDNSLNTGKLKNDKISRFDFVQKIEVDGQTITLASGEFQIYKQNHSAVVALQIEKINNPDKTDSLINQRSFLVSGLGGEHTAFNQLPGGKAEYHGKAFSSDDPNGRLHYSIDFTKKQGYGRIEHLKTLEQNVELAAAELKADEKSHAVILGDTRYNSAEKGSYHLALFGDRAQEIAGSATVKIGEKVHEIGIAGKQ

T2: fHbp m001118 (Neisseria meningitidis fHbp v3.28-based …, point mutant)
T2 chain: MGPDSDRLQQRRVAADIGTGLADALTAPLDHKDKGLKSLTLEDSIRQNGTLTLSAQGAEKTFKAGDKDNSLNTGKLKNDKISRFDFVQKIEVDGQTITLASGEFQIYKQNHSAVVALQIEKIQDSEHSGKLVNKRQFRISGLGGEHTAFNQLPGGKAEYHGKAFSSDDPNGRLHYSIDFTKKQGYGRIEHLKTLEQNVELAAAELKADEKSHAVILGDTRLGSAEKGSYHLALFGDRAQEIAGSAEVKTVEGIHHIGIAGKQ

T3: fHbp m001152 (Neisseria meningitidis fHbp v3.28-based …, point mutant)
T3 chain: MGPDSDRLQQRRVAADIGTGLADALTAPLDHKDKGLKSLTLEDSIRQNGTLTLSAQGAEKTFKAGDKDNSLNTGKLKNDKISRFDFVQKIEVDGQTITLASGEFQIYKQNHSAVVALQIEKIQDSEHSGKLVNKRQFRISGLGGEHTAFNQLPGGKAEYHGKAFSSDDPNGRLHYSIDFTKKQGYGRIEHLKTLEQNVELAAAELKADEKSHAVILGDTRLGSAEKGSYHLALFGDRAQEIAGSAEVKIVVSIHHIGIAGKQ

T4: fHbp m002333 (Neisseria meningitidis, engineered fHbp …, chimera)
T4 chain: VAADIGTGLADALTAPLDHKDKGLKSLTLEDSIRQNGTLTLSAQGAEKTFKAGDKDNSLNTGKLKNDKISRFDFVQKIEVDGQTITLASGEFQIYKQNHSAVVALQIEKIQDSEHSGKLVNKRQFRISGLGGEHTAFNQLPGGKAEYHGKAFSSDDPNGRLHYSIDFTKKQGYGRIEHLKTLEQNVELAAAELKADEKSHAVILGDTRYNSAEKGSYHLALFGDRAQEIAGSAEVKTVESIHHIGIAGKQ

T5: fHbp m001720 (Neisseria meningitidis, engineered fHbp …, point mutant)
T5 chain: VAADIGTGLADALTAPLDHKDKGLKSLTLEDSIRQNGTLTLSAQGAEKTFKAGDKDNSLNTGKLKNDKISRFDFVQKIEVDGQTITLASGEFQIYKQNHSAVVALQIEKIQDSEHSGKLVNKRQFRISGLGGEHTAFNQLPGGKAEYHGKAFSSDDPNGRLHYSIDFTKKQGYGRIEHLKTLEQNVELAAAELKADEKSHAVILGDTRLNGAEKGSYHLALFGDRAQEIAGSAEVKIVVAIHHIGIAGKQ

T6: fHbp m001659 (Neisseria meningitidis, fHbp …, point mutant)
T6 chain: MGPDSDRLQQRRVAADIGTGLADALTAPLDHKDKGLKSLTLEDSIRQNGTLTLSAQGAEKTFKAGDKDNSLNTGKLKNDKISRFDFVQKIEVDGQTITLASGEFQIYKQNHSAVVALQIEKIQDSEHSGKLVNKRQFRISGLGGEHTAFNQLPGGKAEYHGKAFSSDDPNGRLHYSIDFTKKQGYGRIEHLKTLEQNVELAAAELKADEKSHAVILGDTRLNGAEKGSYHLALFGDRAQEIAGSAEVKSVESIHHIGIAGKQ

T7: fHbp m001119 (Neisseria meningitidis fHbp v3.28-based …, point mutant)
T7 chain: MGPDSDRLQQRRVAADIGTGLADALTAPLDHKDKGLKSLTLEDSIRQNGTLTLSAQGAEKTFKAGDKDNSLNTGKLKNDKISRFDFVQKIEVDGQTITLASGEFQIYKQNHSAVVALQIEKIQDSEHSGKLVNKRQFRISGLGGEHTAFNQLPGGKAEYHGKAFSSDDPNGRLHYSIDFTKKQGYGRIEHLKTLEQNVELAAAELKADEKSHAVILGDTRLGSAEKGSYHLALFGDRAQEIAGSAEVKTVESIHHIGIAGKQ

T8: fHbp m002256 (Neisseria meningitidis, engineered fHbp …, chimera)
T8 chain: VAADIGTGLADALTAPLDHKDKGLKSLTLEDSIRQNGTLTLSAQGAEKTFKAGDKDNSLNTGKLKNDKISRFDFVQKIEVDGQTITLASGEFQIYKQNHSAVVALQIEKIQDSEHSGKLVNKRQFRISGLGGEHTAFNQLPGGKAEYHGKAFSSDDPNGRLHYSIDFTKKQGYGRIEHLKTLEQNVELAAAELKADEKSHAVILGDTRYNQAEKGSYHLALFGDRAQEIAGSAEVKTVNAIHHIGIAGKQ

T9: fHbp m001037 (Neisseria meningitidis fHbp v3.28, …, point mutant)
T9 chain: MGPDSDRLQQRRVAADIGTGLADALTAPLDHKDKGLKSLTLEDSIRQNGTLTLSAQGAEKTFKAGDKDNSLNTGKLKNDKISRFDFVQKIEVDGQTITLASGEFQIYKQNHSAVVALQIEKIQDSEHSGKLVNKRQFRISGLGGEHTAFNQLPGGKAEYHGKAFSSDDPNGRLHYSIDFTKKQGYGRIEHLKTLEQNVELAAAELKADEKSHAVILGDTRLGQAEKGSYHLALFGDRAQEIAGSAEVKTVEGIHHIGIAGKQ


Key:
Assay in all cases: BLI
Details in all cases: both partners purified
fHbp mutant 0022 = molecular target: T1, fHbp mutant 0022
fHbp m001118 = molecular target: T2, fHbp m001118
fHbp m001152 = molecular target: T3, fHbp m001152
fHbp m002333 = molecular target: T4, fHbp m002333
fHbp m001720 = molecular target: T5, fHbp m001720
fHbp m001659 = molecular target: T6, fHbp m001659
fHbp m001119 = molecular target: T7, fHbp m001119
fHbp m002256 = molecular target: T8, fHbp m002256
fHbp m001037 = molecular target: T9, fHbp m001037

Binder	Kd (fHbp mutant 0022)	koff (fHbp mutant 0022)	kon (fHbp mutant 0022)	Kd (fHbp m001118)	koff (fHbp m001118)	kon (fHbp m001118)	Kd (fHbp m001152)	koff (fHbp m001152)	kon (fHbp m001152)	Kd (fHbp m002333)	koff (fHbp m002333)	kon (fHbp m002333)	Kd (fHbp m001720)	koff (fHbp m001720)	kon (fHbp m001720)	Kd (fHbp m001659)	koff (fHbp m001659)	kon (fHbp m001659)	Kd (fHbp m001119)	koff (fHbp m001119)	other results
mAb 1E6 (human) (antibody, V domains shown, source: Expi293, purified (MabSelect SuRe, SEC); copies: 2 + 2) VH: EVQLVQSGAEVKKPGSSVKVSCKASGGTVIDYPITWVRQAPGQGLEWVGGFVPLFRTSNYGQKFQGRVTITADKSTSTASMELNSLTSEDTAIYYCARGDTAMGPFDYWGQGTLVTVSS VL: SYVLTQPPSLSVAPGKTATLTCGGNNIAGKTVHWYQQRPGQAPVLVISYDSDRPSGIPERFSGSNSANTATLTISRVEAGDEADYYCQVWDRNSDHWVFGGGTKLTVL	0.601 nM	0.0003 s⁻¹	498300 ± 1660 M⁻¹ s⁻¹	0.235 nM	8.5e-05 s⁻¹	361600 ± 2210 M⁻¹ s⁻¹	0.291 nM	0.000121 s⁻¹	415300 ± 2380 M⁻¹ s⁻¹	0.0267 nM	6.18e-06 s⁻¹	231300 ± 2110 M⁻¹ s⁻¹	0.788 nM	0.000292 s⁻¹	370200 ± 1240 M⁻¹ s⁻¹	0.716 nM	0.000306 s⁻¹	427300 ± 1410 M⁻¹ s⁻¹	0.886 nM	0.000349 s⁻¹	kon (fHbp m001119): 393800 ± 1250 M⁻¹ s⁻¹; Kd (fHbp m002256): 0.23 nM; koff (fHbp m002256): 0.000106 s⁻¹; kon (fHbp m002256): 460600 ± 4450 M⁻¹ s⁻¹; Kd (fHbp m001037): 0.349 nM; koff (fHbp m001037): 0.000144 s⁻¹; kon (fHbp m001037): 413700 ± 3870 M⁻¹ s⁻¹
chimeric antibody h12C1 (antibody, V domains shown, also called humanized 12C1; source: Expi293, purified (MabSelect SuRe, SEC); copies: 2 + 2) VH: QVQLQESGPELVKPGASVKISCKASGYSFSDYNMSWVKQSNGKSLEWIGIIDPKYGTINYNQKFKGKATLTVDQASSTAYMQLNSLTSEDSAVYYCVRDYYGSSYFDYWGQGTTLTVSS VL: DIVLTQSPSSIYASLGERVTLTCKASQDIHNYLNWFQQKPGKSPKTLIYRANRLVDGVPSRFSGGGSGQDYSLTISSLEFEDIGIYYCLQYDEFPPTFGGGTRLEIK				42 nM	0.0103 s⁻¹	245000 ± 3100 M⁻¹ s⁻¹	45.9 nM	0.00937 s⁻¹	204000 ± 3360 M⁻¹ s⁻¹	166 nM	0.01686 ± 0.000166 s⁻¹	102000 ± 4590 M⁻¹ s⁻¹	1.04 nM	0.000368 s⁻¹	354900 ± 1290 M⁻¹ s⁻¹	1.75 nM	0.000578 s⁻¹	330000 ± 3440 M⁻¹ s⁻¹	0.957 nM	0.000266 s⁻¹	kon (fHbp m001119): 278300 ± 1110 M⁻¹ s⁻¹; Kd (fHbp m002256): 43.6 nM; koff (fHbp m002256): 0.0102 s⁻¹; kon (fHbp m002256): 235000 ± 5060 M⁻¹ s⁻¹; Kd (fHbp m001037): 0.893 nM; koff (fHbp m001037): 0.000269 s⁻¹; kon (fHbp m001037): 300900 ± 2650 M⁻¹ s⁻¹
mAb 4B3 (human) (antibody, V domains shown, also called 4B3-2; source: Expi293, purified (MabSelect SuRe, SEC); copies: 2 + 2) VH: QVQLVQSGGGLVKPGGSLRLSCAASGFPFSSYYMSWIRQAPGKGLEWVSDINNSGNVKEYADFVKGRLTISRDNVKNSMYLHMNSLRVEDTAVYYCARNRGRFDVWGQGTLVTVSA VL: EIVMTQSPGTLSLSPGETATLSCRASQMISSPFLAWYQQRRGQAPRLLIYGASTRATDTPDRFRGSGSGTDFILTISRLEPEDFAVYYCQYYDDSPFTFGQGTKLEIK	1.77 nM	0.000836 s⁻¹	473200 ± 1420 M⁻¹ s⁻¹																		
